Patent publication US20230365693A1 (BIONTECH, published 2023)
Values joined by “and” are separate entries in the source; they are usually repeats but may differ in a detail not shown here. Equal entries are not always repeated.

Legend:
[1] = biological target: T1, human PD-1, full-length, expressed on cells (human (Homo sapiens), UniProt Q15116 25-288); experiment: cell-based or functional assay
[2] = biological target: T1, human PD-1, full-length, expressed on …; experiment: cell-based or functional assay; remark: listed apart in the source

T1 sequence (Q15116 25-288): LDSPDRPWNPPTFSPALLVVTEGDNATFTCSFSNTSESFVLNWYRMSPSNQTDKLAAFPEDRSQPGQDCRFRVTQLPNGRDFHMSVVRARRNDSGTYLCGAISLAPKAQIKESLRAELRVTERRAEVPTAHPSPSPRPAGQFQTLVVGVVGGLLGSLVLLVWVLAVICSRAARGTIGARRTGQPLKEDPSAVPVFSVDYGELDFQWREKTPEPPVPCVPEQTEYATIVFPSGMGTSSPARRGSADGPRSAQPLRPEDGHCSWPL

EC50 of PD-1/PD-L1 checkpoint blockade, bioluminescent cell-based reporter assay [1]: 0.165 µg/mL and 1.12 nM
EC50 in the antigen-specific proliferation assay (CD8+ T-cell expansion index) [2]: 0.0124 µg/mL and 0.0837 nM
B1: IgG1-PD1 (antibody)
heavy: QVQLVESGGGLVQPGTSLRLSCSVSGFSLYSYNMGWVRQAPGKGLEYIGIISGGTIGHYASWAKGRFTISRDTSKTTLYLQMNSLTTEDTATYFCARAFYDDYDYNVWGPGTLVTVSSASTKGPSVFPLAPSSKSTSGGTAALGCLVKDYFPEPVTVSWNSGALTSGVHTFPAVLQSSGLYSLSSVVTVPSSSLGTQTYICNVNHKPSNTKVDKRVEPKSCDKTHTCPPCPAPEFERGPSVFLFPPKPKDTLMISRTPEVTCVVVDVSHEDPEVKFNWYVDGVEVHNAKTKPREEQYNSTYRVVSVLTVLHQDWLNGKEYKCKVSNKALPAPIEKTISKAKGQPREPQVYTLPPSREEMTKNQVSLTCLVKGFYPSDIAVEWESNGQPENNYKTTPPVLDSDGSFFLYSKLTVDKSRWQQGNVFSCSVMHEALHNHYTQKSLSLSPG
light: AIQLTQSPSSLSASVGGTVTITCQSSQSVYGNNQLSWYQQKPGQPPKLLIYQASKLETGVPSRFRGSGSGTQFTLTISSLQSEDFATYYCAGGYSSSSDTTFGGGTEVVVKRTVAAPSVFIFPPSDEQLKSGTASVVCLLNNFYPREAKVQWKVDNALQSGNSQESVTEQDSKDSTYSLSSTLTLSKADYEKHKVYACEVTHQGLSSPVTKSFNRGEC
